The assay deals with human IL13 (IL012, Millipore) (human) (UniProt P35225). Description: SPR, Biacore 3000, antibody captured by anti-human Fc, IL13 as analyte; HEK293-FS expression.
human IL13 (IL012, Millipore) (human), sequence (P35225 35-146 limits assumed): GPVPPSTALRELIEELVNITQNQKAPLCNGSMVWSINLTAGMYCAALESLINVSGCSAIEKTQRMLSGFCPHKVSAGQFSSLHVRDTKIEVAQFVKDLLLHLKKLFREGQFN

B1: anti-IL13 mAb ctrl (antibody, from a related filing, V domains shown)
VH: EVQLKESGPGLVAPGGSLSITCTVSGFSLTDSSINWVRQPPGKGLEWLGMIWGDGRIDYADALKSRLSISKDSSKSQVFLEMTSLRTDDTATYYCARDGYFPYAMDFWGQGTSVTVSS
VL: DIVLTQSPASLAVSLGQRATISCRASESVDSYGQSYMHWYQQKAGQPPKLLIYLASNLESGVPARFSGSGSRTDFTLTIDPVQAEDAATYYCQQNAEDSRTFGGGTKLEIK
As to B1, the equilibrium dissociation constant (Kd) amounted to 0.0888 nM, the off-rate (koff) came to 4.52e-05 s⁻¹ and the kon came to 508000 M⁻¹ s⁻¹.

(Values after patent publication US20230279151A1.)
